{"source": "patent US5663314", "key": {"Syntide-2": {"target": "T1, Syntide-2", "T1 sequence (peptide)": "PLARTLSVAGLPGKK"}, "[1]": {"target": "Recombinant ERK2 expressed in E. coli (Rattus norvegicus (Rat)) (UniProt P63086)"}, "S6 peptide": {"target": "T2, S6 peptide", "T2 sequence (peptide)": "RRLSSLRA"}, "[2]": {"target": "bovine myelin basic protein (bovine) (UniProt P02687)", "sequence (P02687 whole entry)": "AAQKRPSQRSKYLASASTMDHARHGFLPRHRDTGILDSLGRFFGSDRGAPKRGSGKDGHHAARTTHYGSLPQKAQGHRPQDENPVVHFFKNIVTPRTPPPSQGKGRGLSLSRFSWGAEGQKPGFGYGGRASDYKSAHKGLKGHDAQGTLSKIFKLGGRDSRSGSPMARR"}, "ETE peptide": {"target": "T3, ETE peptide", "T3 sequence (peptide)": "RRREEETEEE"}, "TEY peptide": {"target": "T4, TEY peptide", "T4 sequence (peptide)": "PEHDHTGFLTEYVATRWYR"}, "RR-SRC peptide": {"target": "T5, RR-SRC peptide", "T5 sequence (peptide)": "RRLIEDAEYAARG"}, "Band-3 peptide": {"target": "T6, Band-3 peptide", "T6 sequence (peptide)": "MEELQDDYEDDMEERR"}}}
{"substance": "MAPK activator 1 (MAPKK1a), 46 kDa polypeptide purified from EGF-stimulated A431 cells (enzyme)", "values": [{"measurement": "Phosphorylation", "setting": "Syntide-2", "result": "< 0.005", "unit": "nmol/min/mg"}, {"measurement": "Phosphorylation", "setting": "Casein", "result": "< 0.005", "unit": "nmol/min/mg"}, {"measurement": "Phosphorylation", "setting": "[1]", "result": 150, "unit": "nmol/min/mg"}, {"measurement": "Phosphorylation", "setting": "Kemptide", "result": "< 0.005", "unit": "nmol/min/mg"}, {"measurement": "Phosphorylation", "setting": "Histones", "result": 0.02, "unit": "nmol/min/mg"}, {"measurement": "Phosphorylation", "setting": "Denatured enolase", "result": "< 0.005", "unit": "nmol/min/mg"}, {"measurement": "Phosphorylation", "setting": "S6 peptide", "result": "< 0.005", "unit": "nmol/min/mg"}, {"measurement": "Phosphorylation", "setting": "[2]", "result": 0.1, "unit": "nmol/min/mg"}, {"measurement": "Phosphorylation", "setting": "ETE peptide", "result": "< 0.005", "unit": "nmol/min/mg"}, {"measurement": "Phosphorylation", "setting": "TEY peptide", "result": 0.04, "unit": "nmol/min/mg"}, {"measurement": "Phosphorylation", "setting": "Ribosomal S6 protein", "result": "< 0.005", "unit": "nmol/min/mg"}, {"measurement": "Phosphorylation", "setting": "RR-SRC peptide", "result": "< 0.005", "unit": "nmol/min/mg"}, {"measurement": "Phosphorylation", "setting": "Band-3 peptide", "result": "< 0.005", "unit": "nmol/min/mg"}]}
